Results published in patent publication US20070105152.
Where two headings read alike, the source gives them in different places.

How the values were obtained:
AcGG(AcK)APR [1] = test system: T1, AcGG(AcK)APR
T1 sequence: GGKAPR

AcTGG(AcK)APRK [2] = test system: T2, AcTGG(AcK)APRK
T2 sequence: TGGKAPRK

AcGG(AcK)APRK [3] = test system: T3, AcGG(AcK)APRK
T3 sequence: GGKAPRK

AcGG(AcK)APRKQ [4] = test system: T4, AcGG(AcK)APRKQ
T4 sequence: GGKAPRKQ

AcTGG(AcK)APR [5] = test system: T5, AcTGG(AcK)APR
T5 sequence: TGGKAPR

AcGG(AcK)AP [6] = test system: T6, AcGG(AcK)AP
T6 sequence: GGKAP

AcSTGG(AcK)AP [7] = test system: T7, AcSTGG(AcK)AP
T7 sequence: STGGKAP

AcSTGG(AcK)APR [8] = test system: T8, AcSTGG(AcK)APR
T8 sequence: STGGKAPR

AcTGG(AcK)AP [9] = test system: T9, AcTGG(AcK)AP
T9 sequence: TGGKAP

AcKSTGG(AcK)AP [10] = test system: T10, AcKSTGG(AcK)AP
T10 sequence: KSTGGKAP

AcGG(AcK)AP [11] = molecular target: T11, AcGG(AcK)AP
T11 chain: GGKAP

AcGG(AcK)APRK [12] = molecular target: T12, AcGG(AcK)APRK
T12 chain: GGKAPRK

AcGG(AcK)APR [13] = molecular target: T13, AcGG(AcK)APR
T13 chain: GGKAPR

AcSTGG(AcK)APR [14] = molecular target: T14, AcSTGG(AcK)APR
T14 chain: STGGKAPR

AcTGG(AcK)APR [15] = molecular target: T15, AcTGG(AcK)APR
T15 chain: TGGKAPR

AcTGG(AcK)APRK [16] = molecular target: T16, AcTGG(AcK)APRK
T16 chain: TGGKAPRK

AcSTGG(AcK)AP [17] = molecular target: T17, AcSTGG(AcK)AP
T17 chain: STGGKAP

AcTGG(AcK)AP [18] = molecular target: T18, AcTGG(AcK)AP
T18 chain: TGGKAP

AcGG(AcK)APRKQ [19] = molecular target: T19, AcGG(AcK)APRKQ
T19 chain: GGKAPRKQ

AcKSTGG(AcK)AP [20] = molecular target: T20, AcKSTGG(AcK)AP
T20 chain: KSTGGKAP

## yeast Sir2
AcGG(AcK)APR [1]
  Relative kcat/Km (relative to AcTGG(AcK)APRK = 1): 2.53
AcTGG(AcK)APRK [2]
  Relative kcat/Km (relative to AcTGG(AcK)APRK = 1): 1
AcGG(AcK)APRK [3]
  Relative kcat/Km (relative to AcTGG(AcK)APRK = 1): 2.33
AcGG(AcK)APRKQ [4]
  Relative kcat/Km (relative to AcTGG(AcK)APRK = 1): 2.09
AcTGG(AcK)APR [5]
  Relative kcat/Km (relative to AcTGG(AcK)APRK = 1): 1.72
AcGG(AcK)AP [6]
  Relative kcat/Km (relative to AcTGG(AcK)APRK = 1): 1.51
AcSTGG(AcK)AP [7]
  Relative kcat/Km (relative to AcTGG(AcK)APRK = 1): 1.83
AcSTGG(AcK)APR [8]
  Relative kcat/Km (relative to AcTGG(AcK)APRK = 1): 1.6
AcTGG(AcK)AP [9]
  Relative kcat/Km (relative to AcTGG(AcK)APRK = 1): 1.62
AcKSTGG(AcK)AP [10]
  Relative kcat/Km (relative to AcTGG(AcK)APRK = 1): 2.12

## Trypanosoma brucei Sir2
AcGG(AcK)APR [1]
  Relative kcat/Km (relative to AcTGG(AcK)APRK = 1): 1.18
AcTGG(AcK)APRK [2]
  Relative kcat/Km (relative to AcTGG(AcK)APRK = 1): 1
AcGG(AcK)APRK [3]
  Relative kcat/Km (relative to AcTGG(AcK)APRK = 1): 1.82
AcGG(AcK)APRKQ [4]
  Relative kcat/Km (relative to AcTGG(AcK)APRK = 1): 1.43
AcTGG(AcK)APR [5]
  Relative kcat/Km (relative to AcTGG(AcK)APRK = 1): 0.89
AcGG(AcK)AP [6]
  Relative kcat/Km (relative to AcTGG(AcK)APRK = 1): 1.27
AcSTGG(AcK)AP [7]
  Relative kcat/Km (relative to AcTGG(AcK)APRK = 1): 0.59
AcSTGG(AcK)APR [8]
  Relative kcat/Km (relative to AcTGG(AcK)APRK = 1): 1.39
AcTGG(AcK)AP [9]
  Relative kcat/Km (relative to AcTGG(AcK)APRK = 1): 0.74
AcKSTGG(AcK)AP [10]
  Relative kcat/Km (relative to AcTGG(AcK)APRK = 1): 1.81

B1: SIRT2 (protein)
chain: MAEPDPSHPLETQAGKVQEAQDSDSDSEGGAAGGEADMDFLRNLFSQTLSLGSQKERLLDELTLEGVARYMQSERCRRVICLVGAGISTSAGIPDFRSPSTGLYDNLEKYHLPYPEAIFEISYFKKHPEPFFALAKELYPGQFKPTICHYFMRLLKDKGLLLRCYTQNIDTLERIAGLEQEDLVEAHGTFYTSHCVSASCRHEYPLSWMKEKIFSEVTPKCEDCQSLVKPDIVFFGESLPARFFSCMQSDFLKVDLLLVMGTSLQVQPFASLISKAPLSTPRLLINKEKAGQSDPFLGMIMGLGGGMDFDSKKAYRDVAWLGECDQGCLALAELLGWKKELEDLVRREHASIDAQSGAGVPNPSTSASPKKSPPPAKDEARTTEREKPQ
AcGG(AcK)AP [11]
  Relative kcat/Km (relative to AcTGG(AcK)APRK = 1): 0.56
AcGG(AcK)APRK [12]
  Relative kcat/Km (relative to AcTGG(AcK)APRK = 1): 0.68
AcGG(AcK)APR [13]
  Relative kcat/Km (relative to AcTGG(AcK)APRK = 1): 0.6
AcSTGG(AcK)APR [14]
  Relative kcat/Km (relative to AcTGG(AcK)APRK = 1): 0.93
AcTGG(AcK)APR [15]
  Relative kcat/Km (relative to AcTGG(AcK)APRK = 1): 0.72
AcTGG(AcK)APRK [16]
  Relative kcat/Km (relative to AcTGG(AcK)APRK = 1): 1
AcSTGG(AcK)AP [17]
  Relative kcat/Km (relative to AcTGG(AcK)APRK = 1): 0.78
AcTGG(AcK)AP [18]
  Relative kcat/Km (relative to AcTGG(AcK)APRK = 1): 0.55
AcGG(AcK)APRKQ [19]
  Relative kcat/Km (relative to AcTGG(AcK)APRK = 1): 0.66
AcKSTGG(AcK)AP [20]
  Relative kcat/Km (relative to AcTGG(AcK)APRK = 1): 0.59
